Test results: publication PMC11162810, “Functional redundancy in tRNA dihydrouridylation” (Nucleic Acids Research, 2024)

T1: BsDusB1 (Bacillus subtilis, UniProt P37567)
T1 construct: gene dus1; monomer about 40 kDa; synthetic gene (Eurofins)
T1 sequence (P37567 1-333): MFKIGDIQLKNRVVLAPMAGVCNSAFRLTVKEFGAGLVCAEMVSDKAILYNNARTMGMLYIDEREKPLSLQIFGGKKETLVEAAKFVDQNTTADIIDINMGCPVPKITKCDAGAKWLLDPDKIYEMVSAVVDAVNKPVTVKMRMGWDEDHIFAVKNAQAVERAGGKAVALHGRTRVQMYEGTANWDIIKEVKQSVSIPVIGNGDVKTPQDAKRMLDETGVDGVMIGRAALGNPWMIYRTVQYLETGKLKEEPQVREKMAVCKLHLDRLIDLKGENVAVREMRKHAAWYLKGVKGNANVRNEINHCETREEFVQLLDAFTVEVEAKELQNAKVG

T2: BsDusB2 (Bacillus subtilis, UniProt O31546)
T2 construct: gene dus2; monomer about 39 kDa; synthetic gene (Eurofins)
T2 sequence (O31546 1-325): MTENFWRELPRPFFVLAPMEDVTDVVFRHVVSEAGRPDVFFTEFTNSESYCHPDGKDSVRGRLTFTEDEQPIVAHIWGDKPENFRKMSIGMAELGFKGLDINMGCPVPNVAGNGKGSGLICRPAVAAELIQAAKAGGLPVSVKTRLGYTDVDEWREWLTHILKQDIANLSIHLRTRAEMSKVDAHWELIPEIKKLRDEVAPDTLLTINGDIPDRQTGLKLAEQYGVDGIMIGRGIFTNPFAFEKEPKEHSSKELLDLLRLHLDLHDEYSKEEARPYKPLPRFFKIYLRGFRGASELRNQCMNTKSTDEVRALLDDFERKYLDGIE

B1: BsDusB1 (Bacillus subtilis subsp. subtilis str. 168) (protein)
chain: T1 sequence (P37567 1-333)
notes: monomer about 40 kDa; synthetic gene (Eurofins)
B2: BsDusB2 (Bacillus subtilis subsp. subtilis str. 168) (protein)
chain: T2 sequence (O31546 1-325)
notes: monomer about 39 kDa; synthetic gene (Eurofins)

How the values were obtained:
[1] = target: T1, BsDusB1; test: copurified flavin, UV-visible absorption and fluorescence, SDS release; format: binding; settings: non-covalent
[2] = target: T2, BsDusB2; test: as above; format: binding; settings: non-covalent
[3] = substrate: NC(=O)C1=CN([C@@H]2O[C@H](COP(=O)(O)OP(=O)(O)OC[C@H]3O[C@@H](n4cnc5c(N)ncnc54)[C@H](OP(=O)(O)O)[C@@H]3O)[C@@H](O)[C@H]2O)C=CC1; test: purified protein; format: biochemical, Bacillus subtilis; settings: aerobic (NAD(P)H oxidase, no tRNA mentioned)
[4] = substrate: NC(=O)C1=CN([C@@H]2O[C@H](COP(=O)(O)OP(=O)(O)OC[C@H]3O[C@@H](n4cnc5c(N)ncnc54)[C@H](O)[C@@H]3O)[C@@H](O)[C@H]2O)C=CC1; test: purified protein; format: biochemical, Bacillus subtilis; settings: aerobic (NAD(P)H oxidase, no tRNA mentioned)

Molecule | copurified flavin, UV-visible absorption and fluorescence, SDS release [1] | copurified flavin, UV-visible absorption and fluorescence, SDS release [2] | Km [3] [µM] | kcat [3] [s⁻¹] | kcat/Km [3] [M⁻¹ s⁻¹] | Km [4] [µM] | kcat [4] [s⁻¹] | kcat/Km [4] [M⁻¹ s⁻¹] | Km ([4]; kcat error missing in the table) [µM]
Cc1cc2nc3c(=O)[nH]c(=O)nc-3n(C[C@H](O)[C@H](O)[C@H](O)COP(=O)(O)O)c2cc1C [FMN] | both BsDusB enzymes are flavoproteins with the FMN non-covalently bound to the apoprotein | both BsDusB enzymes are flavoproteins with the FMN non-covalently bound to the apoprotein | – | – | – | – | – | – | –
B1 | – | – | 18 ± 3 | 0.013 ± 0.002 | 700 | 21 ± 4 | 0.013 ± 0.0014 | 600 | –
B2 | – | – | 2.1 ± 0.2 | 0.7 ± 0.1 | 300000 | – | – | – | 22 ± 4
